According to patent publication US20150005238A1 (PAION DEUTSCHLAND, published 2015):
Each block holds one binder with its values, some of them ahead of it.

Key:
[1] = molecular target: thrombin (APC / TAFI activation assays of Examples V, VI and VIII; source not stated for the assay); assay: cell-based or functional assay
[2] = molecular target: human thrombin (human, UniProt P00734 328-622); assay: equilibrium binding titration in solution; perturbation of DAPA fluorescence (20 nM thrombin, 20 nM DAPA, Solulin titrated), nonlinear regression
Experimental: The binding of thrombin to thrombomodulin was measured as an equilibrium binding assay. A solution containing thrombin (20 nM), thrombomodulin (1.54 μM), and DAPA (20 nM, dansylarginine N-3-(ethyl-1,5-pentanediyl)amide, a fluorescent, reversible thrombin inhibitor) in 0.02 M Tris-HCl, 0.15 M NaCl, 5.0 mM CaCl₂, 0.01% Tween 80, pH 7.4, was added in small successive aliquots to an otherwise identical solution that lacked thrombomodulin. The additions were performed in a cuvette fitted with a magnetic stirrer in the sample compartment of a Perkin-Elmer model LS50B spectrofluorimeter. Intensity values were continuously recorded with excitation and emission wavelengths of 280 and 545 nm, respectively. A 430-nm cut-off filter was used in the emission beam. The intensity of fluorescence, I, was assumed to be the sum of intensities from thrombin-DAPA (T·D) and thrombin-thrombomodulin-DAPA (T·TM·D). That is, I=i₁·[T·D]+i₂·[T·TM·D], where i₁ and i₂ are the coefficients of fluorescence for T·D and T·TM·D (since excitation was at 280 nm, the emission from free DAPA was negligible).

B4: Recombinant soluble thrombomodulin (Solulin) (receptor)
chain: EPQPGGSQCVEHDCFALYPGPATFLNASQICDGLRGHLMTVRSSVAADVISLLLNGDGGVGRRRLWIGLQLPPGCGDPKRLGPLRGFQWVTGDNNTSYSRWARLDLNGAPLCGPLCVAVSAAEATVPSEPIWEEQQCEVKADGFLCEFHFPATCRPLAVEPGAAAAAVSITYGTPFAARGADFQALPVGSSAAVAPLGLQLMCTAPPGAVQGHWAREAPGAWDCSVENGGCEHACNAIPGAPRCQCPAGAALQADGRSCTASATQSCNDLCEHFCVPNPDQPGSYSCMCETGYRLAADQHRCEDVDDCILEPSPCPQRCVNTQGGFECHCYPNYDLVDGECVEPVDPCFRANCEYQCQPLNQTSYLCVCAEGFAPIPHEPHRCQLFCNQTACPADCDPNTQASCECPEGYILDDGFICTDIDECENGGFCSGVCHNLPGTFECICGPDSALAGQIGTDCDSGKVDGGDSGAGEPPPSPTPGSTLTPP
notes: Obtained from PAION; also called sTM; recombinant human soluble thrombomodulin
Kd [2]: 23 nM

B5: TME with Ala inserted between 386 and 387 (receptor)
chain: CSVENGGCEHACNAIPGAPRCQCPAGAALQADGRSCTASATQSCNDLCEHFCVPNPDQPGSYSCMCETGYRLAADQHRCEDVDDCILEPSPCPQRCVNTQGGFECHCYPNYDLVDGECVEPVDPCFRANCEYQCQPLNQTSYLCVCAEGFAPIPHEPHRCAQMFCNQTACPADCDPNTQASCECPEGYILDDGFICTDIDECENGGFCSGVCHNLPGTFECICGPDSALARHIGTDC
cofactor activity (APC assay) [1]: < 10 % of wild type TME

B6: TME with Ala inserted between 387 and 388 (receptor)
chain: CSVENGGCEHACNAIPGAPRCQCPAGAALQADGRSCTASATQSCNDLCEHFCVPNPDQPGSYSCMCETGYRLAADQHRCEDVDDCILEPSPCPQRCVNTQGGFECHCYPNYDLVDGECVEPVDPCFRANCEYQCQPLNQTSYLCVCAEGFAPIPHEPHRCQAMFCNQTACPADCDPNTQASCECPEGYILDDGFICTDIDECENGGFCSGVCHNLPGTFECICGPDSALARHIGTDC
cofactor activity (APC assay) [1]: < 10 % of wild type TME

B7: TME with Ala inserted between 388 and 389 (receptor)
chain: CSVENGGCEHACNAIPGAPRCQCPAGAALQADGRSCTASATQSCNDLCEHFCVPNPDQPGSYSCMCETGYRLAADQHRCEDVDDCILEPSPCPQRCVNTQGGFECHCYPNYDLVDGECVEPVDPCFRANCEYQCQPLNQTSYLCVCAEGFAPIPHEPHRCQMAFCNQTACPADCDPNTQASCECPEGYILDDGFICTDIDECENGGFCSGVCHNLPGTFECICGPDSALARHIGTDC
cofactor activity (APC assay) [1]: < 10 % of wild type TME

Other lines, results leading:

cofactor activity (APC assay) [1]: < 10 % of wild type TME
B1: TME with deletion of Gln387 (receptor)
chain: CSVENGGCEHACNAIPGAPRCQCPAGAALQADGRSCTASATQSCNDLCEHFCVPNPDQPGSYSCMCETGYRLAADQHRCEDVDDCILEPSPCPQRCVNTQGGFECHCYPNYDLVDGECVEPVDPCFRANCEYQCQPLNQTSYLCVCAEGFAPIPHEPHRCMFCNQTACPADCDPNTQASCECPEGYILDDGFICTDIDECENGGFCSGVCHNLPGTFECICGPDSALARHIGTDC

cofactor activity (APC assay) [1]: < 10 % of wild type TME
B2: TME with deletion of Met388 (receptor)
chain: CSVENGGCEHACNAIPGAPRCQCPAGAALQADGRSCTASATQSCNDLCEHFCVPNPDQPGSYSCMCETGYRLAADQHRCEDVDDCILEPSPCPQRCVNTQGGFECHCYPNYDLVDGECVEPVDPCFRANCEYQCQPLNQTSYLCVCAEGFAPIPHEPHRCQFCNQTACPADCDPNTQASCECPEGYILDDGFICTDIDECENGGFCSGVCHNLPGTFECICGPDSALARHIGTDC

cofactor activity (APC assay) [1]: < 10 % of wild type TME
B3: TME with deletion of Phe389 (receptor)
chain: CSVENGGCEHACNAIPGAPRCQCPAGAALQADGRSCTASATQSCNDLCEHFCVPNPDQPGSYSCMCETGYRLAADQHRCEDVDDCILEPSPCPQRCVNTQGGFECHCYPNYDLVDGECVEPVDPCFRANCEYQCQPLNQTSYLCVCAEGFAPIPHEPHRCQMCNQTACPADCDPNTQASCECPEGYILDDGFICTDIDECENGGFCSGVCHNLPGTFECICGPDSALARHIGTDC

cofactor activity (APC assay) [1]: < 10 % of wild type TME
B8: TME with Ala inserted between 389 and 390 (receptor)
chain: CSVENGGCEHACNAIPGAPRCQCPAGAALQADGRSCTASATQSCNDLCEHFCVPNPDQPGSYSCMCETGYRLAADQHRCEDVDDCILEPSPCPQRCVNTQGGFECHCYPNYDLVDGECVEPVDPCFRANCEYQCQPLNQTSYLCVCAEGFAPIPHEPHRCQMFACNQTACPADCDPNTQASCECPEGYILDDGFICTDIDECENGGFCSGVCHNLPGTFECICGPDSALARHIGTDC
